According to patent US20230096030A1 (UCB, published 2023):

Assays:
[1] = target: T1, recombinant human CD9 long extracellular loop 2-human Fc fusion protein (10015-CD, R&D Systems) (human, UniProt P21926 112-195); test: BLI (Octet RED384), CD9 loop 2-Fc on AHC biosensors, Fab-Y 10 µg/mL
T1 construct: Bought reagent; the order here follows the printed name; also called CD9-loop2; long extracellular loop 2 peptide; not shown: human Fc
T1 sequence: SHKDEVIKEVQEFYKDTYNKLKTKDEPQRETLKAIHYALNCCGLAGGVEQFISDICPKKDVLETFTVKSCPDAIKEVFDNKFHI
Text: CD9 contains two extracellular loops: a short extracellular loop (loop 1: 34-55 in SEQ ID NO:2) and a long extracellular loop (loop 2: 112-195 in SEQ ID NO:2). We used biolayer interferometry to assess binding of our panel of CD9 Fab-Y antibodies (selected for binding to full length cell-expressed CD9) to the long extracellular loop 2 peptide using the Octet® RED384 System (FortéBio) with Anti-hlgG Fc Capture (AHC) Biosensors (FortéBio) at room temperature. Firstly, an array of 8 sensors was dipped in kinetics buffer (PBS 0.1%, BSA 0.02%, Tween 20) for 120 seconds to provide a baseline signal. Sensors were then moved to wells containing 200 μl of recombinant human CD9 long extracellular loop 2-human Fc fusion protein (10015-CD, R&D Systems®) at 2 μg/mL in kinetics buffer to immobilize the protein to the biosensor (100 seconds), followed by a second baseline step (180 seconds) in kinetics buffer to equilibrate the biosensors now coated with the CD9 long extracellular loop 2-human Fc fusion protein. No detachment of the peptide was observed during this step. Sensors were then dipped in wells containing one of the anti-CD9 Fab (10 μg/mL) to evaluate association of each antibody to CD9-loop2 (120 seconds), followed by dissociation in kinetics buffer (600 seconds). Anti-CD137 Fab-Y (11175) was used as negative control during the antibody association step. […]

[2] = target: T2, full length cell-expressed CD9 (human, UniProt P21926 2-228); test: selection on cells expressing CD9; method not described
T2 construct: also called human CD9
T2 sequence: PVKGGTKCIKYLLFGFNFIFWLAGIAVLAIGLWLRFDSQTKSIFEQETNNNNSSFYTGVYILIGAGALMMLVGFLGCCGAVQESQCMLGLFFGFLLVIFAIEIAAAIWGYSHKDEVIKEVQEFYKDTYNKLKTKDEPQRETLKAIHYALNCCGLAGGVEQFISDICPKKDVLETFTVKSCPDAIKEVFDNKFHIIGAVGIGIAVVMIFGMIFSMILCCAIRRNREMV

B1: anti-CD9 Fab-Y 7272 (Fab, V domains shown)
VH: QSLEESGGRLVTPGTPLTLTCTVSGFSLSSYAMGWVRQAPGKGLEWIGAIGSITATGYARWAKGRFSISKTSTTVDLKMTSPTTEDTATYFCAREIYVGSAYAFDIWGPGTLVTVSS
VL: AYDMTQTPASVEVAVGDTVTIKCQASQSISNYLAWYQQKPGQPPKLLIYLASTLASGVPSRFKGSGSGTEFTLTISDLECADAATYYCQQGYIDNVNKGFGGGTEVVVK
notes: Tested as Fab-Y: Fab with the GCN4 peptide (clone 7P14P) attached by a peptide linker to CH1; also called VR7272
[1]
  binding result: binds
[2]
  binding result: binds
